Consider 1 molecule from patent US20030224463A1 (Dana-Farber, published 2003).

In this experiment the target is T1, human MLH1 protein (hMLH1) (human, UniProt P40692 1-756, limits assumed).
T1 construct: Translated in vitro for the MBP-hPMS1 column assay
T1 sequence: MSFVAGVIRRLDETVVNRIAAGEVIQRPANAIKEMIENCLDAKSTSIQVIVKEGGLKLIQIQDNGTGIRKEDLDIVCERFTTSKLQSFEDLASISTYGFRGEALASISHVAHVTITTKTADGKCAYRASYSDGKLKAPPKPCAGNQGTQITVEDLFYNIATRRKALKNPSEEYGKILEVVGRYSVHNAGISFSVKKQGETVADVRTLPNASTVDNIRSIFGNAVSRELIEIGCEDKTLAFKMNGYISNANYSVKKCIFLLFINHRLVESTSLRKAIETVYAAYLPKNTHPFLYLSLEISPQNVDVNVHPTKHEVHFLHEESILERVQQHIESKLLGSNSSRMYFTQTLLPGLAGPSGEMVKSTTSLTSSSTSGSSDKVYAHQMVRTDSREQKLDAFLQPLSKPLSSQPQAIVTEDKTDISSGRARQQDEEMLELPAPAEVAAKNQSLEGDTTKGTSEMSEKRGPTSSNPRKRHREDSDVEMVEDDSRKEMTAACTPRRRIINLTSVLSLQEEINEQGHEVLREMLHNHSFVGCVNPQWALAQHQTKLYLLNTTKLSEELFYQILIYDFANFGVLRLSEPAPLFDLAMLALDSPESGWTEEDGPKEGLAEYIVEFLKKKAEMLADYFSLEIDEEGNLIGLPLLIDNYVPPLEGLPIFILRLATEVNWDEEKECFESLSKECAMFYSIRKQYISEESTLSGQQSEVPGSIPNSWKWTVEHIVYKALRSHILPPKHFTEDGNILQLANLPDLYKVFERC
As to the kind of experiment: yeast two-hybrid system.

B1: human PMS1 protein (hPMS1) (other)
chain: MERAESSSTEPAKAIKPIDRKSVHQICSGQVVLSLSTAVKELVENSLDAGATNIDLKLKDYGVDLIEVSDNGCGVEEENFEGLTLKHHTSKIQEFADLTQVETFGFRGEALSSLCALSDVTISTCHASAKVGTRLMFDHNGKIIQKTPYPRPRGTTVSVQQLFSTLPVRHKEFQRNIKKEYAKMVQVLHAYCIISAGIRVSCTNQLGQGKRQPVVCIGGSPSIKENIGSVFGQKQLQSLIPFVQLPPSDSVCEEYGLSCSDALHNLFYISGFISQCTHGVGRSSTDRQFFFINRRPCDPAKVCRLVNEVYHMYNRHQYPFVVLNISVDSECVDINVTPDKRQILLQEEKLLLAVLKTSLIGMFDSDVNKLNVSQQPLLDVEGNLIKMHAADLEKPMVEHQDQSPSLRIGEEKKDVSISRLREAFSLRHTTENKPHSPKTPEPRRSPLGQKRGMLSSSTSGAISDKGVLRSQKEAVSSSHGPSDPTDRAEVEKDSGHGSTSVDSEGFSIPDTGSHCSSEYAASSPGDRGSQEHVDSQEKAPETDDSFSDVDCHSNQEDTGCKFRVLPQPINLATPNTKRFKKEEILSSSDICQKLVNTQDMSASQVDVAVKINKKVVPLDFSMSSLAKRIKQLHHEAQQSEGEQNYRKFRAKICPGENQAAEDELRKEISKTMFAEMEIIGQFNLGFIITKLNEDIFIVDQHATDEKYNFEMLQQHTVLQGQRLIAPQTLNLTAVNEAVLIENLEIFRKNGFDFVIDENAPVTERAKLISLPTSKNWTFGPQDVDELIFMLSDSPGVMCRPSRVKQMFASRACRKSVMIGTALNTSEMKKLITHMGEMGHPWNCPHGRPTMRHIANLGVISQN
notes: Synthesized in vitro for the MBP column assay
As for B1, the binding result is “binds”.
